Target: DCLK1 KD (DCLK1 kinase domain lacking the inhibitory C-terminal tail) (human) (UniProt O15075)
Test: SPR

Chain of UniProt O15075 (O15075 390-647): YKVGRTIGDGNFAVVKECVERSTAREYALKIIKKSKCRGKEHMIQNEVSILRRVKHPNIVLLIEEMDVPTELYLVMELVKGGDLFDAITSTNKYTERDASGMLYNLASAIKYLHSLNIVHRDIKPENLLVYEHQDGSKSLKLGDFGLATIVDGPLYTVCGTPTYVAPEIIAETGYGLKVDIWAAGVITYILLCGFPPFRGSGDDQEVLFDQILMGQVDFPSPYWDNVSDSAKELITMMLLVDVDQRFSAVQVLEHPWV

Kd: 155 µM
Substance: DCLK1 AID peptide (C-terminal autoinhibitory domain of DCLK1 isoform 2)

— PMC8686072
